From publication PMC8345336
Read-outs that look alike come from different tables or passages of the source. One block for each substance: values may come before it.

Experiments:
[1] = target: soluble methane monooxygenase hydroxylase component (sMMOH), (αβγ)2, from Methylosinus trichosporium OB3b (Methylosinus trichosporium OB3b) (UniProt P27353); assay: NMR titration
[2] = target: soluble methane monooxygenase hydroxylase component (sMMOH), (αβγ)2, from Methylosinus trichosporium OB3b (Methylosinus trichosporium OB3b) (UniProt P27353); assay: NMR titration; remark: listed apart in the source
[3] = target: soluble methane monooxygenase hydroxylase component (sMMOH), (αβγ)2, from Methylosinus trichosporium OB3b (Methylosinus trichosporium OB3b) (UniProt P27353); assay: NMR titration; remark: listed apart in the source
[4] = target: MMOB (Methylococcus capsulatus) (UniProt P18797); conditions: cited from earlier work
[5] = target: MMOR (Methylococcus capsulatus) (UniProt P22868); conditions: cited from earlier work
[6] = target: MMOR (Methylosinus trichosporium) (UniProt Q53563); conditions: cited from earlier work
[7] = target: MMOB (Methylosinus trichosporium) (UniProt P27356); assay: fluorescence quenching; conditions: cited from earlier work

half dissociation value [1]: 13.7 µM | Kd [2]: 60 nM | half dissociation value [2]: 9.1 µM | Kd [3]: 90 nM
Substance: methane monooxygenase reductase component (MMOR), unlabelled (from UniProt Q53563 1-340) (enzyme)

Substance: sMMOH (diferric) (from UniProt P22869)
Kd [4]: 550 nM | Kd [5]: 900 nM

Substance: sMMOH (diferric) (from UniProt P27353)
Kd [6]: 10 nM | Kd [7]: 68 nM
